Assay: soluble on expression in E. coli; label from the status in PepcDB or PDB records

Sequence	soluble on expression in E. coli
MGSDKIHHHHHHMTDEHSVFEYKIGLLAPSRVGKSTLIAGLLTEGQQQLAQDSSVHLLTADRPTKNRLAATYNLVSGALKARMFEPGLVPSTSDPSWFRLLLEARGQDLQIRFDILDYPGAWLEGAGEGTEDEQKWNECEAFLADSSVLILPIDSVLLMDSGDDHAHLLASHLSVFQINQAVLRWAKNRRELSGEPAMIVFCPVKCETYLSDSGSLQDHAGTLRGKVVDQFSDVLKTVRDAAPHAAVRYLPIDTFGCVELVSARWIHAQGSPGGEMLVPKYRVRPPGQIVRKGLDDLLTLLCRQLVDTARAQSERTTAAKQTAALNSRNHAELREGFFRDLWLNFNGERNRRRHTAATDERLFAMSQRTTQSLFDVLTALAGRESGPRLHHLS	not soluble
MSNLDNPGIYYQERFFANDGVPDTGRELIAEYRQLITQFRNFIRDFSTGGFGMIYRDQLKRNYFSHEYRLEINLNHLKNFDEDIEMKLRKFPGKVLPALEEAAKIVADEITTPRPKGEEKLHDIQVTLTLDEYPTSLRQVKSAQVSQVVKISGIIVAAAQVRSKATKVTLQCRQCKHTIPDVSIKPGLEGFALPRTCAAPQQGQMQRCPIDPYIMLPDKCECVDYQTLKLQENPEDVPHGEMPRHLQLFTERYLTDKVVPGNRVTIVGVYSIKKLIQKKGGDKSLQGIRTPYLRVLGIHMETSGPGRTNFTTFTPEEERMFKTLAQRKDAYELIAKSIAPSIYGSADIKKSIACLLFGGARKKLPDGITRRGDINVLLLGDPGTAKSQLLKFVEQVSPIGVYTSGKGSSAAGLTASVIRDPQSRSFIMEGGAMVLADGGVVCIDEFDKMREDDRVAIHEAMEQQTISIAKAGITTTLNSRCSVLAAANSVYGRWDESRGDDNIDFMPTILSRFDMIYIVKDTHDVLKDATLAKHVIEVHVNASAAKERDIAGVPKTATTDSDGVMTMFDTDGFLTIEFLKKFVTYARLNCGPRLTPQASEKLVNHYVKMRNPVVNADAFKSGKKAHNSAIPITVRQLEAIVRIAESIAKMELQQFATDKHVEEALRLFRVSTIEAAATGNLAGVEGFTSTADQEALNRIEVQMKKRFAIGTHVSEHLIVQDFVARQHYRESLVKKVIDNLVRRGDLQQKMQRKMLYRVR	not soluble
GHMPAYVFSKESFLKFLEGHLEDDVVVVVSSDVTDFCKKLSESMVGEKEYCFAEFAFPADIFDADEDEIDEMMKYAIVFVEKEKLSEAGRNAIR	soluble
MGMEYSFGFTKIDEAQKQSMVDGVFHSVAENYDKMNDILSLGLHRMWKNSMVAWLSPPAVFHWKVLDVAGGTGDIAFRILNASRQKAHATVLDINGSMLSVGKKRAEKNGLAPLIDFVEANAEHLPFEDQSFDAYTIAFGIRNVPHIDQALREAFRVLKPGGRFLCLEFSNVEMPLLDKIYDLWSFHAIPKLGQLIANDGDAYRYLVESIRKFPKQDDFAHMINHVGFSRVSYRNLTGAIAALHSAWKILEHHHHHH	not soluble
MGSDKIHHHHHHMARMFYDEMHDAGGECRSHYREFARWLADTPEEQLLQRRREADLLFHRAGITFTLYGDEQGTERLIPFDTIPRSIPAAEWAHIEAGCIQRVQALNLFLADLYHEQRILKAGVIPAEQVLANDQYQLAMQGLDLPGNVYAHIAGVDLVRDGSGNYYVLEDNLRTPSGVSYMLENRKMMMRLFPELFVRQRVAPIDHYPDLLLDTLKRASDVESPSVVVLTPGRFNSAYFEHAFLAREMGVELVEGADLFVRDERVYMRTTAGPQPVDVIYRRIDDAFLDPLAFNPDSLLGVPGLLAAYRAGNLVLANAIGTGVADDKSIYPYVPDMIRFYLGEDPLLHNVPTWQCRKPKELAHVLAHLPELVVKETQGSGGYGMLVGPAASREEIELFRERLKARPEAYIAQPTLSLSTCPTFVESGVAPRHIDLRPFVLSAPDRVRLVPGGLTRVALREGSLVVNSSQGGGTKDTWVVEE	not soluble
MTYDYVIGMDACKYFHHACVLDIDGTQVLSKRINQNEQSLRALFSAFSAYDHKVLVVVDQPNNIGRLTVAVAQDIGIDVRYLPGLAMRQLSRIHAGNAKTDIRDAYIIAHAAKNLPESLRSVDRVEEAFLQLKVLNGIDEDLARSYTRLINQIRSALVGCYPQFEQALRGQIIHRKWVLHLLARYGGPTKIKRLGKAKAAAFARRYKARNPEPVLDAIFAAISEQTVTIAGAHYAEMGVAMSAKDALLKLEHRQQIEKEVIELINDIPHTQFLLSMPGIGPKTAAQILMTAGDMSDFPSAGHLASYAGLSPRTNQSGTSIMSNSLNRAGNKKLKNALWQSSFASIRFHERSRQFYERKRREGKRHNAAVVALARRRLNVLYAMMRNHEHYHDPAPSQEDLAA	not soluble
MWIIEAEGDILKGKSRILFPGTYIVGRNVSDDSSHIQVISKSISKRHARFTILTPSEKDYFTGGPCEFEVKDLDTKFGTKVNEKVVGQNGDSYKEKDLKIQLGKCPFTINAYWRSMCIQFDNPEMLSQWASNLNLLGIPTGLRDSDATTHFVMNRQAGSSITVGTMYAFLKKTVIIDDSYLQYLSTVKESVIEDASLMPDALECFKNIIKNNDQFPSSPEDCINSLEGFSCAMLNTSSESHHLLELLGLRISTFMSLGDIDKELISKTDFVVLNNAVYDSEKISFPEGIFCLTIEQLWKIIIERNSRELISKEIERLKYATASNSTPQKIAAALEHHHHHH	soluble
MSVETILVVGGGISGITTAVEAAEVGYNTVLVEKKPYLGGRAAQLNKYFPKLCPPYCGLEMNFRRIKPNPKITVYTMTEVESVSGQEGNYSVRLKVSPRFVNEKCTACNACAEACPVERPNEFNFGMDKTKAAYLPHVLSYPMRYVIDRDACKDNSCDKCVKACKYNAIDLNMKPQTIEMKVGSIVYATGWNPYDATRMDNLGFGRVKNVITNMMMERLAAPNGPTGGKLLRPSDNKEVKKVVFVQCAGSRDENHLNYCSSICCMASLKQATYVRERIPDSQVVVAYIDLRAPGKYEEFLNKVEADANVKLVKGKVAKIEEDKATGGVILEFEDVEGGGKRHEHADMAVLATGMEPCVKANSMLSFEENGFINGGSAAGIYSTGVAKRPSDVTTAIQDATGMALKSIQSLVRSLEHHHHHH	not soluble
MNELTKQMQQIMHPRAVLVAYECETTGYSTPRSYLELRPVNEKGRMGAGIPVTYEFMNSLVESYTESMSGIPHGRIPGNMLLCDSRKGRERYIWYNPPQKRKMYFQDGLHITDGTFNVPGVIYVVERECMDIHAFKGAIPEERTELYLAPFFNVAGANVCLGSSSPKKPQDMDFLEFQEYWEKRFWMSEFSHLGGNRNPTRSNLVSVTEHARNNPFDYSELQQSGKKLKDILA	not soluble
MGSDKIHHHHHHMRVLAIRHVEIEDLGMMEDIFREKNWSFDYLDTPKGEKLERPLEEYSLVVLLGGYMGAYEEEKYPFLKYEFQLIEEILKKEIPFLGICLGSQMLAKVLGASVYRGKNGEEIGWYFVEKVSDNKFFREFPDRLRVFQWHGDTFDLPRRATRVFTSEKYENQGFVYGKAVGLQFHIEVGARTMKRWIEAYKDELEKKKIDPRLLLETAEREEKVLKGLLRSLLERMVES	not soluble
MPFLPPLTPPTELYVGIQLPNPISILVNYLPVRQTPIETLRNLVYSCDINTLAIDEFMTWPSLLQPESTFRPYFELLVERGSLKVFAKRATS	not soluble
MTKTTILLLCGGGSSEHEISLVSANYIQQQLELTPEFHVIRVEMKKEGWFSEQGALVYLDTNSATLNSDKASYPIDFVVPCIHGFPGETGDIQSMLELAGIPYLGCGPEASANSFNKITSKLWYDALDIPNTPYLFLTQNTPSSIDKAKQAFGHWGSIFVKAARQGSSVGCYKVTTEDQIAPAIEAAFGFSEQVLVEQAVKPRELEVSAYEMNGKLYISKPGEVIAPEGTFYSYEEKYSANSHARTVLEAENLTEKHKELIQTYAERVFIHMKLRHLSRIDFFLTQEGQIYLNEVNTFPGMTPISMFPKMLEHNGHRFSEFLVQCVTNTLVNAK	not soluble
MRRAEMLLLKSLAETLMADRDNRHDDLQATMRLAHLSSPEMILYMVNRVLELEESIERIAAVLQKLSADEPMPLEETPPEPAFEPALQSRATETAET	not soluble
MMKIAIIGSGISGLTCGYYLHRYHDITLFEANDYIGGHTATVDVELAGKPYAVDTGFIVYNDRTYPNFIKMMDEIGVQGKPTQMSFSVRNDANGLEYNGHTLTTLFAQKRNWLNPKFYRFIAEILRFNRLTKACVDNQLANEQTLGDFLAQHQFSEYFCENYILPMGAAIWSSSLADMRAFPLMFFARFFLNHGLLDVTNRPQWYVIPGGSRSYIAPLTQGFGDRIRLNSAVTQVKRLPSGVEVVVNGRSERFDEVIFACHSDQALAMLSDASSTEQQLLSALAYQANEVVLHTDTRLLPKRKAAWAAWNYWLKGEANQETRLPSLTYNMNILQHIEAPETFCVTLNSSEDIDPSKILRRFTYHHPVFSRPAIEAQQKKAQISGVNHTWFCGAYWHNGFHEDGVRSALDVVTQLEAYAQRSEQGAA	not soluble
MKTADELAKLRRASELITDSMLATIAAARAGSTKLEIIEQLRREETNRGLHFEYCLLTLGASHNRAGSPQAWAEGEILSIDSGGNYHGYIGDLCRMGVLGEPDAELEDLLAEVERIQQAAFAKVRAGVLGSEMIVAAEAELKASPSAAFTDFFCHGMGLITHEAPFLMTNHPVAYEGIDADKPLEAGNVISVETTMLHPKRGFIKLEDTLAITDKGYEMFGDRGRGLEHHHHHH	soluble
MGSDKIHHHHHHMRISLSTGTLFTFPLGKVMAIARDAGFDGVELIVNQDFQKVNCRTLIRELAEILPIHSMHAPFMPLDGWGSSIDSLKRCVELSADCGVQLVNFHPPSWMGFELGFWRWLYRVMDFQKEVGQGGVIVTLENMPWVGKRVRMNPHILSSTTKFIDFIQERNLFMTFDTTHMGSGKANFINDFYLCYNSGRIRNIHFSDYGHGREHLLPGHGILPLTRFLNHLRSTGYNDTLTLELSPEEFPRDERIIVESLREILSYLRKETEHPIP	not soluble
MRLFFQHFLLFYAASAYNVSVNTNRSFLFGDVLEPLCSINVTGQNLTRSELIELFHKWEKYTSSQISSSSSISDYRKAMPCFPGPNLNLTSSNSDMIPQYPNCETFVNISKTTFGEANDLLEEVKKVRGVEQMDVSLKSVINSLSSRLQNLIDYLPDGATKNKTQERLSTLIEIGNQKLPETLRNSTRNQPPTQSTKSEFNPFELLSCFNISMMKTATVSGQTIGSIACSKFKLCSFSAVTSNPCLSNLRITEAQYDSVVNKTIAELIGEKLGGEQVQKKLGSAIGQFFGEHPRSKRTPKPRCENCTEEEYEDVTPLSDQVKMDGREELEESDDRSSGVESDESSGEVIDESYGKIDELDQEMSKRSTDSRKMSHEEITQAKIAKIRESIIDQLLTKTDDPDNSTDFQPTKRSAALEASQDNFKEALDNFRTEHIEDMTEGSGQESDRPTDSTKLYGSTQSPSEIIRPSIRTLNMETESSPVDFIENMSPISDSNDMDSSTVPNVAKKNNNFEKDLDAFRTVNNGSEKLNSSMFQELQTVLNLKLNSTMLEYAASFANISESLPKMSGEFTVSQFLQKMDINDWPTLKHLLNSMQSVFGNLPGFSQISNFIENLSSSGLDLKSVLKMIPAMNSSGTSLHKDAVLDLLNSFKSKISSSDTPKSPALEAAIQKISEASTLPTLLQNDLNSNDSSISDALNILKSNPLLSSLKI	soluble

Source: the DeepSol protein solubility set
